Assay results as given in patent US20220306713A1.

Key:
[1] = biological target: mouse PD-L1 on the surface of mouse tumor cell lines A20 and CT26 (mouse) (UniProt Q9EP73); assay: flow cytometry, PE-labelled protein, 0.5 ug in 100 ul, A20 cells (high PD-L1), after Fc block; A20-Blank X-AMean 76.61
[2] = biological target: mouse PD-L1 on the surface of mouse tumor cell lines A20 and CT26 (mouse) (UniProt Q9EP73); assay: flow cytometry, PE-labelled protein, 2.5 ug in 100 ul, A20 cells (high PD-L1), after Fc block; A20-Blank X-AMean 76.61
[3] = biological target: mouse PD-L1 on the surface of mouse tumor cell lines A20 and CT26 (mouse) (UniProt Q9EP73); assay: flow cytometry, PE-labelled protein, 2.5 ug in 100 ul, CT26 cells (low PD-L1), after Fc block; CT26-Blank X-AMean printed 254.50
[4] = biological target: recombinant human PD-1 antigen (human) (UniProt Q15116); assay: SPR (Biacore T200), antibody captured on anti-human IgG Fc CM5 chip, recombinant human PD-1 as analyte, 1:1 Langmuir fit
[5] = biological target: recombinant human PD-L1 antigen (human) (UniProt Q9NZQ7); assay: SPR (Biacore T200), antibody captured on anti-human IgG Fc CM5 chip, recombinant human PD-L1 as analyte, 1:1 Langmuir fit
UniProt Q9NZQ7, sequence (Q9NZQ7 19-238 limits assumed): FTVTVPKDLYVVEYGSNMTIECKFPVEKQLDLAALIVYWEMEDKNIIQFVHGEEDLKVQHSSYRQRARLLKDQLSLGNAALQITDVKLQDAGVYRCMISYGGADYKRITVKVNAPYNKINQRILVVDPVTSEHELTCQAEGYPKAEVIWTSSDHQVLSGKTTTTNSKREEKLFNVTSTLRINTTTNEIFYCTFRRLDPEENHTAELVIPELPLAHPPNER

UniProt Q15116, sequence (Q15116 25-167 limits assumed): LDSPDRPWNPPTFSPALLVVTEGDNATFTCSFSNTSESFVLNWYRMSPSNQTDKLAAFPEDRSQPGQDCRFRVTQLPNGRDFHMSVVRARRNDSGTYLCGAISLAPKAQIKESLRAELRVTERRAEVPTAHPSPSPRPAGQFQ
UniProt Q9EP73, sequence (Q9EP73 19-290): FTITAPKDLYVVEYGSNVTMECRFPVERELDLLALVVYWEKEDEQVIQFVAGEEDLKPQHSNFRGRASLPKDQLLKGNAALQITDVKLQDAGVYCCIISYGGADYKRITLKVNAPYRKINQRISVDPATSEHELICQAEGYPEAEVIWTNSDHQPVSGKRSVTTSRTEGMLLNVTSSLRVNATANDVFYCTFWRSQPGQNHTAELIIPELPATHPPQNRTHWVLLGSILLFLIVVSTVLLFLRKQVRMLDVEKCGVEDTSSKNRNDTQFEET

Row | X-AMean [1] | X-AMean [2] | X-AMean [3] | Molecule | further results
1 | 1830 | 5930 | 590 | anti-PD-L1(10F.9G2) antibody-HC-mIL-10 fusion protein (from UniProt P18893 19-178) | 
2 | 949 | 4990 | 885 | rat-anti-mouse PD-L1 monoclonal antibody 10F.9G2 | 
3 |  |  |  | anti-human PD-1 antibody 7A4D (antibody, from another filing, V domains shown) VH: QIQLVQSGSELKKPGASVKVSCKASGYTFTNFGMNWVRQAPGQGLKWMGWISGYTREPTYAADFKGRFVISLDTSVSTAYLQISSLKAEDTAVYYCARDVFDYWGQGTLVTVSS VL: DIVLTQSPASLAVSPGQRATITCRASESVDNYGYSFMNWFQQKPGQPPKLLIYRASNLESGVPARFSGSGSRTDFTLTINPVEADDTANYYCQQSNADPTFGQGTKLEIKR | Kd [4]: 0.83 nM; koff [4]: 0.000806 s⁻¹; kon [4]: 974000 M⁻¹ s⁻¹
4 |  |  |  | anti-human PD-L1 antibody 5G11 (antibody, from another filing, V domains shown) VH: QVQLKQSGPGLVQPSQSLSITCTVSGFSLTTYGVHWVRQSPGKGLEWLGVIWRGVTTDYNAAFMSRLTITKDNSKSQVFFKMNSLQANDTAIYYCARLGFYAMDYWGQGTSVTVSS VL: SIVMTQTPKFLLVSAGDRVTITCKASQSVSNDVAWYQQKPGQSPKLLIYYAANRYTGVPDRFTGSGYGTDFTFTISIVQAEDLAVYFCQQDYTSPYTFGGGTKLEIK | Kd [5]: 0.29 nM; koff [5]: 0.000779 s⁻¹; kon [5]: 2.65e+06 M⁻¹ s⁻¹
